Experimental data from patent US20240317871A1 (IMMUNOMIC THERAPEUTICS, published 2024).

B1: Ab_001 (H5S14-1A1A) (antibody, V domains shown)
VH: DVKLVESGGGLVKPGGSLKLSCAASVFTFSRYTMSWVRQTPEKRLEWVATISSGGSYTYYPDSVKGRFTISRDNAKNTLYLQMSSLKSEDTAIYYCTRGGDGLFDYWGQGTALTVSS
VL: DVQITQSPSYLAASPGETITINCRASKSISKYLAWYQEKPGKTNQLLIYSGSTLQSGIPSRFSGSGSGTDFTLTISSLEPEDFAMYYCQQHNEYPWTFGGGTKLEIK
notes: also called Ab_1
B2: Ab_050 (H5S19-9A11A) (antibody, V domains shown)
VH: QVQLKQSGPGLVQPSQSLSITCTVSGFSLTTYGVHWVRQSPGKGLEWLGVIWSGGSTDYNAAFISRLSISKDNSKSQVFFKMNSLQANDTAIYYCARRGYGSPYYYAMDYWGQGTSVTVSS
VL: EIVLTQSPALMAASPGEKVTITCSVSSSISSSNLHWYQQKSETSPKPWIYGTSNLASGVPVRFSGSGSGTSYSLTISSMEAEDAATYYCQQWSSYPLTFGAGTKLELK
notes: also called Ab_50
B3: Ab_071 (H5S20-3B7A) (antibody, V domains shown)
VH: QVQLQQSGAELVRPGTSVKISCKASGYTFTNSWLGWVKQRPGHGLEWIGDIYPGGGYNKYNEKFRGKATLTADTSSSTAYMQLSSLTSEDSAVYFCAGAMDYWGQGTSVTVSS
VL: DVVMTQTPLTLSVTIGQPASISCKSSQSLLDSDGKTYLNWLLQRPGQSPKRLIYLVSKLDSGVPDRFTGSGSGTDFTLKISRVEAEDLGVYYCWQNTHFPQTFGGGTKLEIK
notes: also called Ab_149; Ab_71
B4: Ab_069 (H5S20-43A19B) (antibody, V domains shown)
VH: QVQLQQSGAELVRPGTSVMISCKASGYTFTNYWLGWVKQRPGHGLEWIGDIYPGGGYIIYNEKFKGKATLTVDSSATTAYMQLSSLTSEDSAVYFCAGAMDYWGQGTSVTVSS
VL: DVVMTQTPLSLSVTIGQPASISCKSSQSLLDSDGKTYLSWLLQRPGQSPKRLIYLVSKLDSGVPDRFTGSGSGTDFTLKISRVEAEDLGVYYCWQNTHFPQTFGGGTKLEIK
notes: also called Ab_155; Ab_69
B5: Ab_070 (H5S20-7A7A) (antibody, V domains shown)
VH: QVQLQQSGAELVRPGTSVKISCKASGYRFTNSWLGWIKQRPGHGLEWIGDIYPGGGYNKYNEKFRGKATLTADTSSSTAYMQLSSLTSEDSAVYFCAGAMDSWGQGTSVTVSS
VL: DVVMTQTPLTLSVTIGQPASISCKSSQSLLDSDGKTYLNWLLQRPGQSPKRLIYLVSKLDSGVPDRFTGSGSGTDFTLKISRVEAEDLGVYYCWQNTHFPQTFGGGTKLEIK
notes: also called Ab_70
B6: Ab_067 (H5S20-7B7B) (antibody, V domains shown)
VH: QVQLQQSGAELIRPGTSVKISCKASGYRFTNSWLGWIKLRPGHGLEWIGDIYPGGGYNKYNEKFRGKATLTADTSSSTAYMQLSSLTSEDSAVYFCAGAMDSWGQGTSVTVSS
VL: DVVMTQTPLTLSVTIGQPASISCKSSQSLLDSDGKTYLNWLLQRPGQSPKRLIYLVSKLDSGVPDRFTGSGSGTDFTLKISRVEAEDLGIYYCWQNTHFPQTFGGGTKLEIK
notes: also called Ab_67
B7: Ab_068 (H5S20-24A19A) (antibody, V domains shown)
VH: QVQLQQSGAELVRPGTSVKISCKASGYTFTNYWLGWVKQRPGHGLEWIGDIYPGGGYIIYNEKFKGKATLTVDSSATTAYIQLNSLTSEDSAVYFCAGAMDHWGQGTSVTVSS
VL: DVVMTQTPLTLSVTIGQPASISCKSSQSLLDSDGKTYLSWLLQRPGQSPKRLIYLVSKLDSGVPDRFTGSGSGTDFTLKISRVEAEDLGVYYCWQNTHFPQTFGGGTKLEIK
notes: also called Ab_68
B8: Ab_013 (H5S14-14A11A) (antibody, V domains shown)
VH: QVQLQQSGAELVRPGTSVKISCKASGYIFTNYWLGWIKQRPGHGLEWIGDVYPGGGYNKYNEKFKGKATLTVDTSASTAYMQLSRLTSEDSAVYFCAGAMDYWGQGTSVTVSS
VL: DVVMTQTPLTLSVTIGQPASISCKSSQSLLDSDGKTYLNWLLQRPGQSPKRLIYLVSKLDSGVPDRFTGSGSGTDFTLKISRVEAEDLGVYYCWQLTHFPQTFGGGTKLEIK
notes: also called Ab_13
B9: Ab_045 (H5S15-31A12C) (antibody, V domains shown)
VH: QVQLQQSGAELVRPGTSVKISCKASGYAFTNSWLGWVKQRPGHGLEWIGDIYPGGGYNKYNEKFKGKATLTADTSSSTAYMQLSSLTSEDSAVYFCAGALDYWGQGTSVTVSS
VL: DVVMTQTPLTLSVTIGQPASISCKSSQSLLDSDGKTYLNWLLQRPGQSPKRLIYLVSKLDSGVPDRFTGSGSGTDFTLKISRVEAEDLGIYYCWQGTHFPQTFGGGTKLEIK
notes: also called Ab_45
B10: Ab_012 (H5S14-13A11A) (antibody, V domains shown)
VH: QVQLQQSGAELVRPGTSVKISCKASGYIFTNSWLGWIKQRPGHGLEWIGDVYPGGGYNKYNEKFKGKATLTIDTSASTAYMQLSRLTSEDSAVYFCAGAMDYWGQGTSVTVSS
VL: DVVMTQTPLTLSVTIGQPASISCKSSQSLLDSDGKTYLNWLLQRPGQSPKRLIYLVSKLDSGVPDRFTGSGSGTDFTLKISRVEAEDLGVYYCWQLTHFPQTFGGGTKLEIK
notes: also called Ab_12
B11: Ab_046 (H5S15-35A31A) (antibody, V domains shown)
VH: QVQLQQSGAELVRPGTSVKISCKASGYTFTNSWLGWVKQRPGHGLEWIGDIYPGGGYNKYNEKFKGKATLTADTSSSTAYMQLGSLTSEDSAVYFCAGAMDYWGQGTSVTVSS
VL: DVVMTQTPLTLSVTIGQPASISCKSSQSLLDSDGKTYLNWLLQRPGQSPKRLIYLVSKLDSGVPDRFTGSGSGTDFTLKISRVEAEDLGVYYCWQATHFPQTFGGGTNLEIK
notes: also called Ab_46
B12: Ab_011 (H5S14-12A11A) (antibody, V domains shown)
VH: QVQLQQSGAELVRPGTSVKISCKASGNIFTNSWLGWIKQRPGHGLEWIGDVYPGGGYNKYNEKFKGKATLTIDTSASTAYMQLSRLTSEDSGVYFCAGAMDYWGQGTSVTVSS
VL: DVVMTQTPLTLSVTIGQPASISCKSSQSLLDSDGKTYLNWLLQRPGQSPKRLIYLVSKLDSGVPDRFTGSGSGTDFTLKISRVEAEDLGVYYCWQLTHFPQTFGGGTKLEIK
notes: also called Ab_11
B13: Ab_006 (H5S14-5A5A) (antibody, V domains shown)
VH: DVQLQESGPGLVKPSQSLSLTCTVTGYSITSDFAWNWIRQFPGNKLEWMGYIVYSGSTSYNPSLKSRISITRDTSKNQFFLQLNSVTAEDTATYFCTRGMDYWGQGTSVTVSS
VL: QIVLTQSPAIISASLGEEVTLTCSASSSVSYMHWYQQKSGTSPKLLIYSTSNLASGVPSRFSGSGSGTFYSLTISSVEAEDAADYYCHQWSSYLTFGAGTKLELK
notes: also called Ab_6
B14: Ab_030 (H5S15-18A17A) (antibody, V domains shown)
VH: QVQLQQSGAELVRPGTSVKMSCKAAGYTFTNSWIGWVKQRPGHGLEWIGDIYPGGGYTNYYEKFKVKATLTADTSSSTAYMQLSSLTSEDSAIYYCASSGAYWGQGTTLTVSS
VL: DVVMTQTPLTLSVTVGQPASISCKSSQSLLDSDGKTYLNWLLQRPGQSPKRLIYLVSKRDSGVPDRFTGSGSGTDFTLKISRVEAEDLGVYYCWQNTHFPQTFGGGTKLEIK
notes: also called Ab_30
B15: Ab_031 (H5S15-8A17A) (antibody, V domains shown)
VH: QVQLQQSGAELVRPGTSVKMSCKAAGYTFTDSWIGWVKQRPGHGLEWIGDIYPGGGYTNYNEKFKGKATLTADTSSSTAYMQLSRLTSEDSAIYYCASSGAYWGQGTTLTVSS
VL: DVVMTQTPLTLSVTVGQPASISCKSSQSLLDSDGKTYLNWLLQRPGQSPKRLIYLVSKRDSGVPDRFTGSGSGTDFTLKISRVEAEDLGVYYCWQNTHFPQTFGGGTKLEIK
notes: also called Ab_31

Key:
murine HVEM = biological target: T1, murine HVEM (murine, UniProt Q80WM9 39-206, limits assumed); assay: ELISA
T1 construct: also called Mouse
T1 sequence (looked up): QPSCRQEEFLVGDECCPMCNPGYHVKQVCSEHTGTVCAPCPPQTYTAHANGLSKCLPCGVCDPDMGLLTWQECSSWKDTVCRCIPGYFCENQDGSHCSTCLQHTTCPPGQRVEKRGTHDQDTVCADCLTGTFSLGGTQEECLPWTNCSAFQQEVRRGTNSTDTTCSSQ

human HVEM = biological target: T2, human HVEM (human, UniProt Q92956 39-202, limits assumed); assay: ELISA
T2 sequence (looked up): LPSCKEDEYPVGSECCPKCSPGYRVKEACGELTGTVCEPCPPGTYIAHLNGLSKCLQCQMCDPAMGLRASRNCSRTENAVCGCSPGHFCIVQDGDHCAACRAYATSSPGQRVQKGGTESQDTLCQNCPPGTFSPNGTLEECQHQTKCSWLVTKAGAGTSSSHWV

cynomolgus monkey HVEM = biological target: T3, cynomolgus monkey HVEM (cynomolgus monkey, UniProt A0A2K5W0R1 39-203); assay: ELISA
T3 sequence: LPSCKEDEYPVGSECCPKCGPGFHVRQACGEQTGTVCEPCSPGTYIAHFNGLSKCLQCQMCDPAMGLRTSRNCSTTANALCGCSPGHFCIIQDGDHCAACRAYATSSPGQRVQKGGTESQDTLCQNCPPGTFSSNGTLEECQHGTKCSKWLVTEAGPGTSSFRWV

[1] = biological target: T4, Human HEVM recombinant protein (Sino Biological, 10334-H02H) (human, UniProt Q92956 39-202); assay: competition ELISA, competitor BTLA-His
T4 construct: construct known only by catalogue number; also called HVEM; human HVEM
T4 sequence (looked up): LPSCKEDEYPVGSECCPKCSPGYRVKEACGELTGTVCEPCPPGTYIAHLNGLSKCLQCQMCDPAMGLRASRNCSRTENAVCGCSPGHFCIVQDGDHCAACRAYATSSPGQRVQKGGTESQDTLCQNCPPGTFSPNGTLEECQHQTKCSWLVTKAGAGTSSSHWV
Experimental: (§1) The competitive activity of HVEM antibody to BTLA or LIGHT was evaluated with ELISA-based competitive assay. Briefly Human HEVM recombinant protein (Sino Biological, 10334-H02H, 4 ug/ml, 100 ul/well) was coated to ELISA plate (Thermo Scientific, 469949, 4C overnight). A pre-mixture of HVEM antibody clone with seral dilution and 400 nM BTLA-His (R&D systems, 9235-BT-050) or LIGHT-His (SinoBiological, 10386-H07H) recombinant protein was made and added to the ELISA plate after blocking with 3% BSA (200 ul/well, RT 2 Hr) for 1 Hr at RT. The serial dilutions of HVEM antibody clone involve 7 different concentrations, with a 3-fold dilution performed start from 100 nM for BTLA or 325 nM for LIGHT competitive assay. The concentration was the final concentration. Plate was washed with PBST; diluted HRP-anti-His (Biolegend, 652504, 1:1000) with PBS containing 5% FBS was added 100 ul per well for 1 Hr at RT. TMB substrate (KPL, 52-00-00) 100 ul per well after washing and incubate at room temperature for 15 minutes; then stop the development by adding 100 ul stop solution (KPL, 50-85-06). Plate was read at 450 nm. The IC50 was calculated using GraphPad Prism software (GraphPad Software, Inc. San Diego, CA, USA).

[2] = biological target: T4, Human HEVM recombinant protein (Sino …); assay: competition ELISA, competitor LIGHT-His
Experimental: as §1

His-tagged human HVEM = biological target: T5, His-tagged human HVEM (human, UniProt Q92956 39-202, limits assumed); assay: BLI OctetRed96, mAb captured, 200 nM His-HVEM
T5 construct: Analyte of the BLI assay, 200 nM in PBS; not shown: His tag
T5 sequence (looked up): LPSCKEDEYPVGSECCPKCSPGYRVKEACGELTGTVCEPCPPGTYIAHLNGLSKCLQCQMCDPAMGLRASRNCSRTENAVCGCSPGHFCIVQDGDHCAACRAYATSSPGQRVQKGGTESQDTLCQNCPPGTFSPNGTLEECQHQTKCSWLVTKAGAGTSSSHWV
Summary of the method: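 Murine anti-human HVEM antibodies captured from culture supernatant on anti-mouse IgG Fc biosensors, then associated with 200 nM His-tagged human HVEM in PBS, followed by dissociation in PBS. koff, kon and KD obtained by curve fitting.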

Binder | ELISA signal (murine HVEM) | ELISA signal (human HVEM) | ELISA signal (cynomolgus monkey HVEM) | IC50 [1] | IC50 [2] | Kd (His-tagged human HVEM) | koff (His-tagged human HVEM) | kon (His-tagged human HVEM)
B1 | 0.057 | 3.3 | 0.072 | 2.2 nM | 715 nM | 550 nM | 0.154 s⁻¹ | 280000 M⁻¹ s⁻¹
B2 | 0.047 | 3.02 | 0.094 | 3 nM | 117 nM | 42.2 nM | 0.00481 s⁻¹ | 114000 M⁻¹ s⁻¹
B3 | 0.047 | 3.08 | 2.98 |  | 20.4 nM | 2.2 nM | 0.00093 s⁻¹ | 423000 M⁻¹ s⁻¹
B4 | 0.054 | 3.13 | 3.04 |  | 22.3 nM | 2.97 nM | 0.000803 s⁻¹ | 271000 M⁻¹ s⁻¹
B5 | 0.062 | 3.23 | 3.1 |  | 17.8 nM | 2.33 nM | 0.00102 s⁻¹ | 438000 M⁻¹ s⁻¹
B6 | 0.047 | 3.05 | 3.04 |  | 13.6 nM | 2.65 nM | 0.00134 s⁻¹ | 505000 M⁻¹ s⁻¹
B7 | 0.044 | 3.03 | 3.04 |  | 20.5 nM | 5.99 nM | 0.00192 s⁻¹ | 320000 M⁻¹ s⁻¹
B8 | 0.048 | 3 | 2.74 |  | 28.1 nM | 4.39 nM | 0.00149 s⁻¹ | 340000 M⁻¹ s⁻¹
B9 | 0.042 | 3.08 | 2.9 |  | 31 nM | 7.32 nM | 0.00265 s⁻¹ | 362000 M⁻¹ s⁻¹
B10 | 0.044 | 3.08 | 2.89 |  | 20.9 nM | 3.22 nM | 0.00121 s⁻¹ | 375000 M⁻¹ s⁻¹
B11 | 0.042 | 2.94 | 3.03 |  | 27.2 nM | 4.59 nM | 0.00169 s⁻¹ | 368000 M⁻¹ s⁻¹
B12 | 0.049 | 3.16 | 2.97 |  | 20.5 nM | 2.78 nM | 0.00107 s⁻¹ | 385000 M⁻¹ s⁻¹
B13 | 0.043 | 3.14 | 2.69 |  | 24.6 nM | 19.6 nM | 0.00692 s⁻¹ | 353000 M⁻¹ s⁻¹
B14 | 0.046 | 3.08 | 2.98 |  | 21.9 nM | 10.3 nM | 0.00419 s⁻¹ | 405000 M⁻¹ s⁻¹
B15 | 0.042 | 3.08 | 3.06 |  | 22 nM | 11 nM | 0.00321 s⁻¹ | 291000 M⁻¹ s⁻¹
